Among the data in publication PMC3658131 are net absorbance values, retold here.

The assay has as its target Bd-cys-S-fluorescein conjugate (Staphylococcus aureus). The experiment in a line: ELISA. For orientation: An ELISA detects its analyte on a solid surface through an enzyme-linked reagent.

Substance “HRP-conjugated guinea pig IgG (antibody)” showed a net absorbance at 405 nm (net absorbance (405 nm)) of 0.91.
As for HRP-conjugated rabbit IgG (antibody), the net absorbance at 405 nm (net absorbance (405 nm)) worked out at 1.13.
